Here are results for one molecule from article PMC9236144 (Molecular Biology of the Cell, 2022).

The experiment concerns the target Bni1FH1C (Bni1 residues 1227-1953) (S. cerevisiae, UniProt P41832 1227-1953). In words: fluorescence polarisation.

Sequence of Bni1FH1C (Bni1 residues 1227-1953) (P41832 1227-1953): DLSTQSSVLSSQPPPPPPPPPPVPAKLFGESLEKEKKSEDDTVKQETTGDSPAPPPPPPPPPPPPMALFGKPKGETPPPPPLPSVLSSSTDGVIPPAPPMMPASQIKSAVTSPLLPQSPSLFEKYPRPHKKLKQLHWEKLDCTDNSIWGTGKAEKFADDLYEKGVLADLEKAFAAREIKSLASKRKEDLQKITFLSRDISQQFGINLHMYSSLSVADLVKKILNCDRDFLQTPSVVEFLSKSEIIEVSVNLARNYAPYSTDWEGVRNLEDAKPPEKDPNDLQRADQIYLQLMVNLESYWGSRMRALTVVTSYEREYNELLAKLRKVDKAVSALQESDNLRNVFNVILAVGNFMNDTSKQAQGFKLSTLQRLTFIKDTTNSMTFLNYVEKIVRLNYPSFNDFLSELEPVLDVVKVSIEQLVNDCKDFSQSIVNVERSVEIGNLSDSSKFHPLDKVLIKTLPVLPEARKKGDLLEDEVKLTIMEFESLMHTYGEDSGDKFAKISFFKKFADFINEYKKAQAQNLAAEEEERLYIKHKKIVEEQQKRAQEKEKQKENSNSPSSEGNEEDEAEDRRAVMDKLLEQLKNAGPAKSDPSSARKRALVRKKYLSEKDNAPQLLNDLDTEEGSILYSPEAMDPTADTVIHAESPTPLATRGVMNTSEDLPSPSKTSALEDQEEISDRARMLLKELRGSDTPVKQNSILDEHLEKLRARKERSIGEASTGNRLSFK

B1: Bud6C (Bud6 residues 550-789) (domain or fragment, S. cerevisiae, UniProt P41697 550-788, looked up)
chain: AKNSSNRMYMEKSQTELGDLSDTLLSKVDDLQDVIEIMRKDVAERRSQPAKKKLETVSKDLENAQADVLKLQEFIDTEKPHWKKTWEAELDKVCEEQQFLTLQEELILDLKEDLGKALETFDLIKLCCEEQEKNPSRSKSNPILPIMRPGTFNQVREQVMVAVQSLNPDHDSRVEAIDKAEKMWEMERKLKASNEFDDELENFVGNSNLKKSGGFEEVERIRKQKDEANLRAYFGPGFT
For B1, the binding result was “binds”.
